test: soluble on expression in E. coli; label from the status in PepcDB or PDB records

Row | Sequence | soluble on expression in E. coli
1 | MGSDKIHHHHHHMSQKIAYQRLEDILKKGSRIALYARYSTGKQDENAQIHSVRNFLSDYGCELLDDNIYIDPKTSAVKVPMDQRKDLQRLIKDSKENKFDCIVSYKNDRIARNTQEHNELRTEMQRLGMPVVLSSTREIYTVGEIVPLTIKDALTQIEPLLIAERTRDTFSSKIENGEWTGGQAPYGYIYDKETELFEITDKKVEVVQEIFRLFKLGYGLQQIANKLIADRRDIGQKWYKDKIKYIITNPFYAGHMTMNRYVKGKLQLKMETWTWSKKQESIPAIMSRDEWEYCFYLYVERRKSQTVRKSSTPFWLRDILHCNECQLPFKTKNQKTKSKRKNGEKVEYGKILYECRNCGLKLETEKIHDKFKEDVGRVLKKLLEKHRENLIQQTQLQIEKEHEEITNVQKELANKRIKLIENIDVLDKKISQLYKDITTGKGLKANHTEDVLGKEDEQDDWNSKLVEILLTGRSQKHNDLEEIKQQQQLLEDKQESLNIVMNALKNQYQDELLNFSFDPENEKSMRNFLLQFVKAVYVSRDMRLDYKIYENLISE | not soluble
2 | PLNRLGHKIYQHSGKWLQETAAEKLNQRDQLINPGHAQVLILGMGRIGTGAYDELRARYGKISLGIEIREEAAQQHRSEGRNVISGDATDPDFWERILDTGHVKLVLLAMPHHQGNQTALEQLQRRNYKGQIAAIAEYPDQLEGLLESGVDAAFNIYSEAGSGFARHVCKQLEPQFTSIK | soluble
3 | MGHHHHHHSHMDKQSSAGGVKRSVPCDSNEANEMMPETPTGDSDPQPAPKKMKTSESSTILVVRYRRNFKRTSPEELLNDHARENRINPLQMEEEEFMEIMVEIPAK | not soluble
4 | MAHHHHHHMPVAPLHPELQRVLKENRRTRAFDPAAWIEMKCAKLNDYMQRCGLKACVTSVSGGIDSAVVLAMCAHAMRAHNSPIQKNVGLCQPIHSSDWALRRGKENIAACGATEVVVDQTALHTELATLVERAAGIEGGAFARGQLRSYMRTPPGFYVAQLLTQEGTPAVVMGTGNKDEDFYLGYFCKAGDGVVDVQIISDLHKSEVLLVAEVLGVPENTRHAAPSADLWEGQTDEDELGFPYDFVELFTEWYLKQRETTKIKFLNSLCDEARNQFERYVAACELVHRRNAHKLQGQVNL | not soluble
5 | MSLEYFDMRKMSVNLWRNAAGETREICTFPPAKRDFYWRASITSIAANGEFSLFPGMERIVTLLEGGEMFLESADRFNHTLKPLQPFSFAADLVVKAKLTAGQMSMDFNIMTRLDVCKAKVRIAERTFTTFGSRGGVVFVINGAWQLGDKLLTTDQGACWFDGRHTLRLLQPQGKLLFSEINWLAGHSEGHHHHHH | not soluble
6 | SSRHVFLTGPPGVGKTTLIQKAIEVLQSSGLPVDGFYTQEVRQEGKRIGFDVVTLSGAQGPLSRVGSQPLPGKPECRVGQYVVNLDSFEQLALPVLRNAGSSCGPKHRVCIIDEIGKMELFSQPFIQAVRQMLSTPGIIVVGTIPVPKGKPLALVEEIRKRRDVKVFNVTRDNRNSLLPDIVAVVQSSRT | soluble
7 | PLGSDSAKLIFINQINDCKDGQKLRFLGCVQSYKNGILRLIDGSSSVTCDVTVVLPDVSIQKHEWLNIVGRKRQDGIVDVLLIRSAVGINLPRYRQMVSERQKCD | soluble
8 | MGSDKIHHHHHHMDFHTGKWLCKQYNLNSFTKVSLLHGGENQTYMFESDKNKFVVRQYREGRYTAEQIEAEIHWLIAIQKQMLVPEVVVNKDGDWVTPVMKDEGSIQYFVVFRFINGNEIIEPKDKDYEKLGSFMRMFHEKTNGVLKSVPQTWRGYERPIYSEKKMIHEPLQCLLNTSFLSYEDKNKCLRIAERIQELTNSIQLREKQFVHGDMHFGNILVDKEDWYLLDFDECGFGYKEFDIGVPRLHLIASGQLEDAWGNFMMGYGENISESAIRLGAASRIFYMAGKIPLRLDIEPIKKNPDHFIRRYIQYAEEELCGETIV | not soluble
9 | MLRLWEELNRVENLFLELLDDPKKKDVLLYLICYCQLVRRDGEYEVELPKLINCAEKPYKYISGNWQDVLLELGVLYLKDKKGKVYTGKEILLVKNPEGFKVGILPDYREDFYKFYTKLLKYWSVLNSRRTLGSNTTPDYYTPLLVHTFNEKLFKEAQYFSEILAMRFPKEKNLFLSVKLVSEFYREYAKTGRVKADNLNDAINFLSDTPDVFYSVNVKKFKKDIKKFLENLNKGEFYYITIEFASENRGKKRSILSKLWNFIKSLGGKRWNSRSSGMDYYSFIEHLLKKHRRQMMRSLESSTPRLQGT | not soluble
10 | MADYDLAIIGGGLNGVSLARDAAGRGLRVILFEQGDLGGAASSATPRLIHGDLSVLERRGFWRVRRALAERRIWLRIAPHLVRPMRFVIPAHSEERPPWLLRAGLYVYDGLTNRGGLPPSATLDITHHPVGNALKRPFGTAFEYSDCVVDDSRLVVLTALDAAERGAAIHTGARCVRADRTDTWRLAVVDRGHRRTITARALANATGGWTSMVADTVLREPQPAMAAMQMSQIIVPRLFDSENVYVFQNNDGRLIFARPLERDFTLIGTVTHAFTGDPAIVAMPGADVSYLCEAASRYFRERVAPTDVVRTVSGVNLTLASARGRDGTALFHARRRKAPLITMFGGDVTTSRLRAERAVTRLTPFYPMSPPWTDGAVLPGGDFAWDRFDTEVDLARDRWRFLSEPEAQRLVAAYGSRLPAVLGEARTRDELGPTFGPELTGAEVRYLMSHEWARFPEDVLWRRSKLGLTMPKADRDGLAAFMADVNDRPEPVEQRPIGRLEHHHHHH | not soluble
11 | MLERIKSGVIGLDEILGGGFIKNTVNAVVGGMGCGKTIFCMNYLLEGLENGEKCMYASPDLDVDEFLRLAESMHWDFSKYIDNGQLNIMTVVAEDAASFIKMAFEYDRVAVDALSPLVIDVEAGSRKEIGWLLKNLKSKGTALITVEEPLRQNADLLLLLADSVISLRYTGYGGPFSRTLRVLKHRMSWHGDGVYPFYIIEGAGIVIDEKRGEGFELEEEMNLPERAKEKIAEMCKKGTLTLEDISKIKRRIP | not soluble
12 | MKVAGVDEAGRGPVIGPLVIGVAVIDEKNIERLRDIGVKDSKQLTPGQREKLFSKLIDILDDYYVLLVTPKEIDERHHSMNELEAEKFVVALNSLRIKPQKIYVDSADVDPKRFASLIKAGLKYEATVIAEHKADAKYEIVSAASIIAKVTRDREIEKLKQKYGEFGSGYPSDPRTKEWLEEYYKQYGDFPPIVRRTWETARKIEERFRKNQLTLDKFLK | soluble
13 | MNSSRPYLVRALYEWIVDNDCTPHILVNAEFAGVKVPPGYASDGQIVLNVSPSAVRHLHMDNEAVSFEGRFGGVAQSLYIPALAVMAIYARENGQGMVFDLEQPGPVDDEPGDDDGGPSDEPPRPSGRPSLKVVK | not soluble
14 | MAHHHHHHMCAKLRDSANISSLRKERDCWQREVARVSDAVRVLCGGANICSNVESPTEWAESLCEAVQDGQAALVCLSLELWTGGTWAGIQGFKEQLTAYVGACASAAKEAAERVEALEVEVLRLKESEASLSARCENTEAHARNVEEDLKRASTQAERVSELEQETSDLRTRCNLLRKELQRQREAMQRDRPQPHETANSETAASPITENASAVQSVLLAAAGCVSERDVATFVGSRGSQDGSLKLSKVGAELLIKENAELKRENAHNNGVIAQYIRELEGYKANERVQLSIEYLRNIVQQYLCAAEDLRPKMIPAICTVLEFSSKQKEDVQTANPRCPRFH | soluble
15 | MGSDKIHHHHHHMPTLEPKIPGISLNYVVPTPEPELLTGVPVFFGLVTEEVKEAKKLTLATHFQQYFGQAKGYLADAIKGFFENGGRLCYVIALSNNTLEALQQGLETSEVLENIDLICVPDIMLGSDGEVIQMQQAILKHCEQMGDRFAILDALNDIGKLNEQRKRISSQNGALYAPWLKVEFRVDPIPACGHIAGIYASCDRTVGVHGAPANIPLAGVLDLSFSLTPTDQEQLNPKNEAGVNCIRSFQGRGMRVWGVRTLSPIPEWQYVNVRRLFLTFGRWVNRNLADTVFEPNAFPLWVRLQRELSIYCESLWRQGAIQGALPQEAFYVKCDAETNPPENREMGQVIAEIGLAPTIPGEFIQLLVVQSSSGITLT | not soluble
16 | MGSDKIHHHHHHAVFVAVGIRMITSGDGRTNRYDVEAGNNTYDNAVIENSKISEKNKIQNNQSMLDDIMNSTQYPKQLKDLALKNEEALEFVFDYPAEHVKEHTIDLTEEASMDSVPLFVQWDKRWGYEKYSGNFFAASGCGPTTLSMVVVYLTHNREASPIAVAKYSKEAGYSVDGSGSSWTLISEGCMHYGVKAKAVALDESRMKAELDEGHPIVVNVGPGDFTDTGHFMVITGYDDEGFSINDPNSIEKSGKRWLFKNISSQIRAVWSMYV | not soluble
17 | TGTAIYFIHGTADQPAAFKRVAERLIDTGLPDEICSLNLLAFDQRYQGKSIKFFAEQLKNKIKVNQHQRVILMAHSRGGLVASYFAEFLAKEASIDVPLVITMGTPFNGSYLAVKPLSWFSDSIREMEINSEFLAQLKQEIVEHSVSAYHFFIAKEDAIVPGESGYIKDYVDKYPESLHILDRHGHLSIMSSHRLVSHISSLLHDYIDDY | not soluble
18 | SNAMENQKMQEPLVYRRILLTVDEDDNTSSERAFRYATTLAHDYDVPLGICSVLESEDINIFDSLTPSKIQAKRKHVEDVVAEYVQLAEQRGVNQVEPLVYEGGDVDDVILEQVIPEFKPDLLVTGADTEFPHSKIAGAIGPRLARKAPISVIVVR | soluble
19 | MAHHHHHHMYSDGERKTVSELQREAEATRKEIIEEAQRLERIKKATAKTQFSIDQLFRFFAREVETEGEKKMLIDLLSSNPPDLHIECVPVLPVVIAIANGRMTNARRIYATDNAFLDDSAFIFLVHTLRFLPQACKIDFLDISGTRVTERGMCFVLEMMIERNTPFTLVAKRLSIPSPEAEAMRARYASLMSALRDKKCCRFIQE | not soluble
20 | MKHKLIDDELKYLDERSRDIFRHIVEAYLNDGGPVGSRNLSRLLRQTLSPATIRNVMSDLEHLGLIYAPHVSAGRMPTQSGLRFFVDAFMEAGDLPNEERENIEAQVKEAGHAQSVEHFLVQASQVLSDLSRGAGLVLATKHEGTLKHIEFVRLDGEHALAVLVTQQGGVENRIVHLPEGVTHAQLTEATNFLNAHIQGLTLSEAKEEIARLCSETRAALDHLSHHLVETGLALWGGEGADHKIRLIVRGRSNLLEDVKAEEDLKRLRHLFDDLETRESMAQLLDLTDEGSGVRIFIGSENKLFSLSGSSLVVAPYRDSQQKVIGALGVIGPTRLNYARIVPMVDYTAQLVSQLLR | not soluble
21 | MAHHHHHHMFYLFDEKAMSTNIKVKSVKRLVYNRHIKGDEAVLSLDLSYDMSKAFNWNLKQLFLYVLVTYETPEKVKNEVIIQDYIITNKNVAKRTYKNFITKYSLKDYNNGLRNNNINLQVCYKYMPIVGLSRSYEGTKISYKLPAEYFDNLPSNYPLYYPDK | not soluble
22 | MSLDKGTVDGRLYQLFKTCIQGINSPLSSVALRSDFYILANHYLSRVLSDQVGSEKVLQDLRLGSKKLVEIIWNDVVYGEGTSRVTGILLLDSLIQLANRSKENFILDSLMKTTRLLLIIRSLKNTDALLNSTTEHINIDDLLYELTAFKATVFFLIRVAETRGGASALIENNLFRIIAELSFLKVDPDLGLDLMFDEVYVQNSKFLKVNVTLDNPLLVDKDANGVSLFELIVPIFQLISAVLVSMGSSNKAVVQTVKGLLNTYKRLVIGIFKRDLLREKEDKKNSSDPNNQSLNEMVKLIVMLCTLTGYQNNDEGHHHHHH | not soluble
23 | MSYRQMLIHRCDIYHEAAQAPSAGRFGIPADRLQPVISYPDTPDEQDVPCYFTEKTQQLIQEEPDQTVYHSFLVHFPLSADIRVNDKIIWENHKYILKLPKRIRHHHWEVVAVRDESLLEHHHHHH | soluble

— the DeepSol protein solubility set
